According to the nanobody polyreactivity screen of Harvey et al. (2022):

Assay: yeast display, Sf9 membrane polyspecificity reagent, FACS + sequencing; frameworks hold sequencing errors
Outline: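 Galactose induction of a Saccharomyces cerevisiae BJ5465 synthetic nanobody display library ran 36–48 hours. The cells were then stained for 1 hour at 4 °C with 10% biotinylated, detergent-solubilized Sf9 membrane reagent, pulled down on streptavidin microbeads and FACS-sorted into low and high (top ~1%) gates on expression and reagent-binding fluorescence. Labels for polyreactivity follow the gate of origin.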

Sequence	polyreactivity (PSR sort gate)
QVQLVESGGGLDQAGGSLRLSCAASGFTFYVYTMGWYRQAPGKERELVARITSRAGRTYYADSVKGRFTISRDNAKNTVYLQMNSLKPEDTAVYYCNTRDFSGYVHALSLYDYWGQGTQVTVSS	high polyreactivity
QVQLVESGGGLDQAGGSLRLSCAASGGIFVGYAMGWYRQSPGKERELVASISSGGSTKYADSVKGRFTISRDNAKNTVYLQMNSLKPEDTAVYYCAATDTEGIDARYASVPTSYDYWGQGTQVTVSS	low polyreactivity
QVQLVESGGGLDQAGGSLRLSCAASGIIFVKYTMGWYIQAPGKERELDAAISRSGGSTYYADSVKGRFTISRDNAKYTVYLQMNSLKPEDTAVYYCNAGARKVYPGPMDYWGQGTQVTVSS	high polyreactivity
QVQLVESGGGLDQAGGSLRLSCAASGITFRWYAMGWYRQAPGKERELVAAISSGGSTRYADSVKGRFTISRDNAKNTVYLQMNSLKPEDTAVYYCAKRYYGRGYYYWGQGTQVTVSS	high polyreactivity
QVQLVESGGGLDQAGGSLRLSCAASGLIFYDKMGWYRQAPRKERELVAAISSSCGSTSYADSVKGRFTISRDNAKHTVYLQMNSLKPEDTAVYYCAADSYPAYLGFVGFDYWGQGTQVTVSS	low polyreactivity
QVQLVESGGGLDQAGGSLRLSCAASGLTFRPYAMGGYRQAPWKERELDAGISGGGGRTYYADSVKGRFTISRDNAKNTVYFQMNSLKPEDTAVYYCATPSAYRYPYYYDYEYWGQGTQVTVSS	low polyreactivity
QVQLVESGGGLDQAGGSLRLSCAASGNIFYGNAMGWSRQAPGKERELVAGITSGGSTNYADSVKGRFTISRDTAKNTVYLQMTSLKPEDTAVYYCNATSSGSIFGYEYWGQGTQVTVSS	low polyreactivity
QVQLVESGGGLDQAGGSLRLSCAASGRIFFGNVMGWYRQATGKDSELVAAITKRVGRTYYADSVKGRFTISRDNAKNTVYLQMNSLKPEDTAVYYCNAVTPLSYCRAAPLEMDYWGQGTQVTVSS	high polyreactivity
QVQLVESGGGLDQAGGSLRLSCAASGRIFGYYAMGWYRLAPGKERELVAGIRSVGSTNYADSVKGRFTISRDNAKNTVYLQMNSLKPEDTAVNYCASRLWHLSYAGQGGDYWGQGTQVTVSS	low polyreactivity
QVQLVESGGGLDQAGGSLRLSCAASGRIFHVNVMGGYRQAPGKERELVAAISKSGGSTYYADSVKGRFTISRDNAKNTVYLQMNSLKPEDTAVYYCAAVRDSARYYYWGQGTHVTVSS	high polyreactivity
QVQLVESGGGLDQAGGSLRLSCAASGRIFNKYAMGWYRQAPGKERELVAAITRSGTRTFYADSVKGRFTISRDNAKNTVYLQMNSLKPEDTAVYYCNRDQYPFTKMDYWGQGTQVTVSS	high polyreactivity
QVQLVESGGGLDQAGGSLRLSCAASGRIFRYYTMGWYRQAPGKERELVAAISTSDDSTNYADSVKGRFTISRDNAKNTVYLQMNSLKPEDTAVYYCAADQSRVGSYQDYDYWGQGTQVTVSS	low polyreactivity
QVQLVESGGGLDQAGGSLRLSCAASGRIFSFNAMGWYRQAPGKERELVAAISWSTGSTFYADSVKGRFTISRDNAKNTVYLQMNSLKPEDTAVYYCAREYYYRRGFFLRGYWGQGTQVTVSS	high polyreactivity
QVQLVESGGGLDQAGGSLRLSCAASGRIFSYYAMGWYRQAPGKERELVAVISRRGDNTYYADSVKGRFTISRDNAKKTVYFQMNSLKPEDTAVYYCAARFGYLTFYSSGYYWGQGTQVTVSS	high polyreactivity
QVQLVESGGGLDQAGGSLRLSCAASGRIFVYNAMGWSRQAPGKARELVATITFSSSNTYYADSVKGRFTISRENAKNTVYLQMNSLKPEDTAVYYCYRDYVYARDYGNFDYWGQGTQVTVSS	low polyreactivity
QVQLVESGGGLDQAGGSLRLSCAASGRTFARYDMGWYRQATGKERELVAGINGDGGSTNYADSVKGRFTISRDNSKNTVYLQMNSLKPEDTAVYYCNVDQEDRKLHVSIKQLSDHWGQGTQVTVSS	low polyreactivity
QVQLVESGGGLDQAGGSLRLSCAASGRTFGRYAMGWYRQAPGKERELVAAITRSGSSTYYADSVKGRFTISRDNAKNTVYLQMNSLKPEDTAVYYCAAGPRPRPSDYWGQGTQVTVSS	high polyreactivity
QVQLVESGGGLDQAGGSLRLSCAASGRTFGYNAMGWYRQAPGKERELVAAINWSGASTYYADSVKGRFTISRDNAKNTVYLQMNSLKPEDTAVYYCAARRKRVSFFPEYDYWGQGTQVTVSS	low polyreactivity
QVQLVESGGGLDQAGGSLRLSCAASGRTFGYYTMGWYRQAPWKERELVARINYIGSSTYYADSVKGRFTISRDNAKNTVYLQLNSLKREDTAVYYCNADTARGRSGVRRYYWGQGTQVTVSS	high polyreactivity
QVQLVESGGGLDQAGGSLRLSCAASGRTFYVYGMGWSRQAPGKERELVAAIRSSGGSTYADSVKGRFTISRDNAKKTVYLQMNSLKPEDTAVDYCAADRRYAESGYYWGQGTQVTVSS	high polyreactivity
QVQLVESGGGLDQAGGSLRLSCAASGRTNAPYAMGWYRPAPGKERELVAAISGGGSTNYADSVKGRFTISRDNAKNSVYLQMNSLKPEDTAVYSCAADQYHGVGINFRSDYDYWGQGTQVTVSS	low polyreactivity
QVQLVESGGGLDQAGGSLRLSCAASGRTSKTYAMGWYRQAPGKERELVATIDRSGDGTYYADSVKGRFTISRDNAKNTVYLQMNSLKPEDTAVYYCNAVTSSFYNRDSDYWGQGTQVSVSS	high polyreactivity

Sequence	polyreactivity (PSR sort gate)
QVQLVESGGGLDQAGGSLRLSCAASGRTYYLYAMGWYRQAPGKERELVAAITFNGGSTYYADSVKGRFTISRDNGKNTVYLQMNSLKPEDTAVDYCAGRLSKRSGYYYWGQGTQVTVSS	high polyreactivity
QVQLVESGGGLDQAGGSLRLSCAASGSIFDDYAMGWYRQAPGKERELVAAISWSGGRTYYADSVKGRFTISRDNAKNTVYLQMNSLKPEDTAVYYCAATTGVRSRRYYYWGQGTQVTVSS	low polyreactivity
QVQLVESGGGLDQAGGSLRLSCAASGSIFDRYAKGWYRQAPGTERELVASITWRATSTYYADSVKGRFTISRDNAKNTVYLKMNRLKPEETAVYYCAAAIAFGYRGTVAKYGYWGQGTQVTVSS	low polyreactivity
QVQLVESGGGLDQAGGSLRLSCAASGSIFETYVMGWYRQAPGKERELVAAINSGGSTYYADSVKGRFTISRDNAKNTVYLQMNSLKPEDTAVYYFAADSPYGYYEGDYWGQGTQVTVSS	low polyreactivity
QVQLVESGGGLDQAGGSLRLSCAASGSIFTYNVMGWYRQAPGKERELVAAISWDGDSTYYADSVKGRFTISRDNAMKTVYLQMNSLKAEDTAVYYCAADVHEKFQYDYWGQGNQVTVSS	high polyreactivity
QVQLVESGGGLDQAGGSLRLSCAASGSIFYPYAMGWYRQAPGKERELVASNSSGGSTYYADSVKGRFTISRDNAKNTVYLQMNSLKPEDTAVYYCARQDYKRFYRYRFGNLYDSWGQGTQVTVSS	high polyreactivity
QVQLVESGGGLDQAGGSLRLSCAASGSIIYWYAKGWYRQAPGKERELVADISRGGITNYADSVKGRFTISRDNEKNTVYLQMNSLKPEDTAFYYCAKTHYGVQRLDSWGQGTQVTVSS	low polyreactivity
QVQLVESGGGLDQAGGSLRLSCAASGSISLNAMGWYRQGPGKEREFVAVITWRVGDTYYADSVKGRITISRDNAKNTVYLQLNSRKPEDSAVYYCAADDLYYQGIYRGSEFDYWGQGTQVTVSS	low polyreactivity
QVQLVESGGGLDQAGGSLRLSCAASGSTFLTNAMGGYRQAPGKEMELVAVISLISGPTYYADSVKVRFTISRDNAKNTVYLQMNRLKPEDTAVYYSATDPYWNSPYVKYDYWGQGTQVTVSS	high polyreactivity
QVQLVESGGGLDQAGGSLRLSCAASGSTFRNNAMGCYRQAPGKEREFVAAISRRGGSTYADSVKGRFTISRDNAKITVYLQMNSLKPEDTAVYFCAVRPSRILTGGRMDYWGQGTQVTVSS	high polyreactivity
QVQLVESGGGLDQAGGSLRLSCAASGSTFRSYAMGWYRQAPGKERELVAVISSGDSTYYADSVKGRFTISRDNAKNTVYLQMNSLKQEDTAVYYCAADSYVLGRWYGYWGQGTQVTVSS	low polyreactivity
QVQLVESGGGLDQAGGSLRLSCAASGSTFWVNTMGWYRQAPGKERELVAGITSNGGSTSYADSVKGRFTISRDNAKNSVYLQMNSLKREDTAVYYCNADTYPDYWAYLYDYWGQGTQVTVSS	low polyreactivity
QVQLVESGGGLDQAGGSLRLSCAASGSTFYAYTMGWYRQAPGKERELVARISGRGGSTYYADSVKGRFTISRDNAKNTVFLQMYSLKPEDTAVYFCASRVYGSYRGIQYGYWGQGTQETVSS	high polyreactivity
QVQLVESGGGLDQAGGSLRLSCAASGSTFYLYAMGWYRQAPGKERELVAAISSGGRTNYADSVKGRFTISRDNAKNTVYLQMNSLKPEDTAVYYCAARIQWPTWSLYYYWGQGTQVTVSS	high polyreactivity
QVQLVESGGGLDQAGGSLRLSCAASGSTFYYYAMGWYRQAPGKERELVATISSGSSTNYADSVKGRFTISRDNAKNTVYLQMNCLKPEDTAVYYCAADRWYITLSIDATISYDYWGQGTQVTVSS	low polyreactivity
QVQLVESGGGLDQAGGSLRLSCAASGSTIHRNAMGWYRQAPGKERELVAAITSGGSTNYADSVKGRFTISRDNAKNTVYLQMNSLKPEDTAVYYCDKDYRHYNRGWYDYWGQGTQVTVSS	low polyreactivity
QVQLVESGGGLDQAGGSLRLSCAASGSTLFPYAMGWYRQAPGKERELVAAISSRGGRTNYADSVKGRFTISRDNAKNTDYLQLYSLKPEDTAVYYCAAGDDYWGQGTEVTVSS	high polyreactivity
QVQLVESGGGLDQAGGSLRLSCAASGSTLSGNAMGWYRHAPGKERELVAAITSSGGRTYYADSVKGRFTISRDNAKNTVYLQMNSLKPEDTAVYYCAARSRLGRYTYDYCGQGTQVTVSS	high polyreactivity
QVQLVESGGGLDQAGGSLRLSCAASGYTFVGNAMGWYRQAPGKERELVAAISRSGGRTYYADSVKGRFTISRDNAKYTVYLQMNSLKPEDTAVYYCAKQPGSGPYYWGQGTQVTVSS	high polyreactivity
QVQLVESGGGLDQAGGSLRLSCAASVNIFIYNTMGWYRQAPGKERELVAAITSDDSTKYADSVKGRFTISRDNAKNPVYLQMNTLKPEDTAVYYCAKRYYHPYWIDYDYWGQGTHVTVSS	low polyreactivity
QVQLVESGGGLDQAGGSLRLSCADSGITFSYYAMRWYRQAPGKERELVAAISSGGSKNYADSVKGRFTISRDNGKNTVYFQMNSLKPEDTEVYYCAATQQFWWAYRYDYWGQGTQVTVSS	low polyreactivity
